The text below walks through data of article PMC5509884, “Dampened activity of ryanodine receptor channels in mutant skeletal muscle lacking TRIC‐A” (The Journal of Physiology, 2017).

This data set deals with the molecule itself. The data set is described as follows: SDS-PAGE immunoblot of the purified protein; anti-PA tag immunoblot of the fractions of the PA-tag column purification of recombinant TRIC-A from CHO cells (buffers with 0.1% DM); bands marked as monomer, dimer and trimer. (In general: In western blotting, separated proteins are transferred to a membrane and probed.)

B1: mouse TRIC-A (type A trimeric intracellular cation channel), full length, with an N-terminal PA-tag (natural protein, UniProt Q3TMP8 1-298, looked up)
chain: MDLMSALSLGELALSFSRVPLFPVFDLSYFIVSIIYLKYEPGAVELSRRHPVASWLCAMLHCFGSYILADLLLGEPIIDYFSNSSSILLASGVWYLIFFCPLDLFYKCVCFLPVKLIFVAMKEVVRVRKIAVGIHHAHHHYHHGWFIMIATGWVKGSGVALLSNVEQLLRGVWKPETNEILHMSFPTKASLYGAILFTLQQTRWLPVSKASLIFVFTMFMVSCKVFLTATHSHSSPFDILEGYICPVLFGATWGGDHHHDNHGAPHGMGLGTQHSGLPAKAKEELGEGSRKKKTKKAD
notes: TRIC-A (trimeric intracellular cation channel type A), mouse, full-length cDNA; The introduction says, citing other work, that TRIC channels are trimers of three monomers of about 30 kDa; also called purified TRIC-A; recombinant TRIC-A; not shown: PA-tag, N-terminal, kept
Take B1: the binding result is listed as “binds”.
